Results reported in patent publication US9957308B2, “Method for detecting bilirubin using a fluorescent protein” (RIKEN, priority 2013, dated 2018).

Key:
[1] = biological target: T1, Japanese eel (Anguilla japonica) UnaG, wild type, SEQ ID NO: 1 (Anguilla japonica, UniProt P0DM59); test: Dissociation constant by bilirubin titration of apo UnaG (fluorescence at 527 nm, curve fitting); format: binding; conditions: wild-type apo UnaG 5 nM, titrated with bilirubin to 10 nM
T1 construct: GST (N, cleaved yes); made in house; host or cells: Escherichia coli BL21 (DE3)
Source text: The capacity of binding to bilirubin can be evaluated through calculation of dissociation constant (Kd) by curve-fitting of correlation between the amount of bilirubin and the fluorescence intensity of UnaG protein. In one instance, “reduced capacity of binding to bilirubin compared to UnaG” means that the dissociation constant, Kd, is larger than that of UnaG.
The dissociation constant can be calculated by a known method, for example, by the following computation expression: Y=[Kd+Bt+Pt−{(Kd+Bt+Pt}^1/2]/(2×Pt) where Y represents the degree of binding of bilirubin (fluorescence intensity); Kd represents the dissociation constant; Bt represents the concentration of bilirubin; and Pt represents the concentration (5 nM) of apo UnaG protein.
(§1) An apo UnaG protein solution having an apo UnaG protein concentration of 5 nM was titrated with bilirubin to give a final concentration of bilirubin of 10 nM, and the fluorescence spectrum was measured with a fluorescence spectrophotometer.
Apo A12ES80N mutant protein was titrated with bilirubin, and the fluorescence intensity was measured with a spectrophotofluorometer F-2500 (Hitachi High-Technologies Corporation). The results were plotted. Data analysis and fitting with graph plotting software Origin (OriginLab Corporation) were performed to determine the dissociation constant (Kd). […]

[2] = biological target: T2, Japanese eel (Anguilla japonica) UnaG variant A12ES80N (A12E, S80N), SEQ ID NO: 29 (Anguilla japonica, UniProt P0DM59, A12E/S80N); test: Dissociation constant by bilirubin titration of apo A12ES80N mutant (fluorescence, curve fitting); format: binding
T2 construct: made in house; host or cells: Escherichia coli JM109 (DE3)
Method: as §1
A DNA fragment of A12ES80N mutant was ligated into BamHI and EcoRI restriction enzyme sites of pRSETB-FLAG vector, which was Escherichia coli expression vector pcRSETB including a FLAG tag sequence (SEQ ID NO: 26) at the KpnI/BamHI restriction enzyme sites, and was transformed into Escherichia coli strain JM109 (DE3) for subcloning. […]
The bacterial cells were suspended in 5 mL of PBS, and 50 μL of lysozyme (4 mg/mL) was added thereto. […] Subsequently, His-FLAG-UnaG mutant protein was eluted by adding each 500 μL of PBS containing 300 mM imidazole to the carrier, and the elution fraction was detected by a bradford method. […] The concentration of the purified His-FLAG-UnaG mutant protein was determined by the following computation expression based on the absorbance A280. […]
Apo A12ES80N mutant protein was titrated with bilirubin, and the fluorescence intensity was measured with a spectrophotofluorometer F-2500 (Hitachi High-Technologies Corporation). […]

[3] = biological target: T1, Japanese eel (Anguilla japonica) UnaG, wild type, SEQ ID NO: 1; test: Fluorescence of apo UnaG reconstructed with bilirubin or bilirubin analogs (ligand specificity); format: biochemical; conditions: apo UnaG 0.5 μM; ligand 0.125-2.0 μM; room temperature 30 min; excitation 497 nm, fluorescence 527 nm
Method: FIG. 5 is a graph showing specificity of UnaG protein in Example of the present invention to unconjugated bilirubin. Apo UnaG (0.5 μM) was mixed with a ligand: bilirubin (unconjugated) at various concentrations or a bilirubin analog, biliverdin, urobilin, or ditaurobilirubin, at various concentrations, and the fluorescence intensity at each concentration was measured. The vertical axis indicates fluorescence intensity, and the horizontal axis indicates concentration (μM) of each ligand.
Bilirubin or a bilirubin analog, biliverdin (Toronto Research Chemicals), urobilin (MP Biomedicals), or ditaurobilirubin (Frontier Scientific), was diluted with PBS such that the final concentration was 0.125 μM, 0.25 μM, 0.5 μM, 1.0 μM, or 2.0 μM and was mixed with 0.5 μM apo UnaG protein. The mixture was left to stand at room temperature for 30 min. Subsequently, 200 μL of the mixture was added to each well of a 96 well microplate (Greiner Bio-One) and was subjected to measurement of the fluorescence intensity at a wavelength of 527 nm with excitation light having a wavelength of 497 nm using EnSpire multi-mode plate reader (PerkinElmer Co., Ltd.).

[4] = Measurement of fluorescence spectrum, absorption spectrum, quantum yield and fluorescence lifetime; format: physicochemical
Method: In order to analyze the fluorescent properties of UnaG protein, the fluorescence spectrum, absorption spectrum, and quantum yield were measured. The excitation spectrum and the fluorescence spectrum were measured with a spectrophotofluorometer, RF-5300PC (Shimadzu Corporation), at an excitation wavelength of 475 nm and a fluorescence wavelength of 550 nm. The absorption spectrum was measured with a spectrophotometer, U-2900 (Hitachi High-Technologies Corporation). The quantum yield was measured with an absolute quantum yield measurement system, Quantaurus-QY (Hamamatsu Photonics K.K.) at excitation wavelengths of 470 nm and 480 nm. A known fluorescent protein, EGFP, was similarly measured, and the values were compared to those of UnaG protein.
In order to analyze the fluorescent properties of R82EK84E mutant, the fluorescence spectrum, absorption spectrum, and quantum yield were measured. The measurement was performed by the same method as that described in the above-described paragraph 3. The fluorescence lifetime was measured with a small-sized fluorescence lifetime measurement system, Quantaurus-Tau (Hamamatsu Photonics K.K.) and was compared to that of wild-type UnaG protein.
The fluorescence spectrum, absorption spectrum, and quantum yield (excitation wavelength: 470 nm) were measured for analyzing the fluorescent properties of holo A12ES80N mutant protein. The measurement was performed by the same method as that described in paragraph 3, above. The fluorescent properties were compared to those of wild-type UnaG protein.

[5] = Evaluation of aggregability of protein by dynamic light scattering particle diameter; format: physicochemical
Method: Protein solutions (each 20 μL) of wild-type UnaG protein (10 mg/mL) and R82EK84E mutated UnaG protein (8.5 mg/mL) were each supplied to Microtrac particle size analyzer MT3000II (Nikkiso Co., Ltd.), and the particle diameters were measured by a dynamic light scattering. The aggregability was evaluated by plotting frequency against particle diameter.

[6] = Table 3, wild-type vs R82EK84E mutant
[7] = Table 3, wild-type vs R82EK84E mutant, holo form reconstructed with bilirubin
[8] = Table 4, wild-type vs holo A12ES80N mutant

T1 sequence (P0DM59 whole entry): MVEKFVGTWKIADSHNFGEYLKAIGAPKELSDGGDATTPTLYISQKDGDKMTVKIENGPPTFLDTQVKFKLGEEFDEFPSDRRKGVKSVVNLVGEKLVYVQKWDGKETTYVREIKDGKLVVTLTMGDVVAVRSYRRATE

Molecule: C=CC1=C(C)/C(=C/c2[nH]c(Cc3[nH]c(/C=C4\NC(=O)C(C)=C4C=C)c(C)c3CCC(=O)O)c(CCC(=O)O)c2C)NC1=O [bilirubin]
- Kd [1]: 98 pM
- Kd [2]: 1900 pM
- fluorescence emission of UnaG on addition of ligand [3]: the fluorescence of UnaG is specific to bilirubin

B1: R82EK84E mutant: UnaG with 82nd amino acid R and 84th amino acid K substituted by E; SEQ ID NO: 5 (protein, listed as Anguilla japonica)
chain: MVEKFVGTWKIADSHNFGEYLKAIGAPKELSDGGDATTPTLYISQKDGDKMTVKIENGPPTFLDTQVKFKLGEEFDEFPSDEREGVKSVVNLVGEKLVYVQKWDGKETTYVREIKDGKLVVTLTMGDVVAVRSYRRATE
- Molar extinction coefficient [4, 6]: 50,870 M^−1 cm^−1
- Quantum yield [4, 6]: 61%
- Maximum excitation wavelength [4, 7]: 498 nm
- Maximum fluorescence wavelength [4, 7]: 527 nm
- Fluorescence lifetime (τ1/ns) ([4]; Table 3, wild-type vs R82EK84E mutant, Quantaurus-Tau): 2.2 ns
- dispersibility / aggregation compared to the wild-type [5]: improved dispersibility
- particle diameter distribution (peaks) ([5]; wild-type 10 mg/mL, R82EK84E mutant 8.5 mg/mL): single peak

B2: A12ES80N mutant: UnaG variant with substitution of A at 12th position to E and S at 80th position to N; SEQ ID NO: 29 (protein, listed as Anguilla japonica)
chain: MVEKFVGTWKIEDSHNFGEYLKAIGAPKELSDGGDATTPTLYISQKDGDKMTVKIENGPPTFLDTQVKFKLGEEFDEFPNDRRKGVKSVVNLVGEKLVYVQKWDGKETTYVREIKDGKLVVTLTMGDVVAVRSYRRATE
- Maximum excitation wavelength [4, 8]: 499 nm
- Maximum fluorescence wavelength [4, 8]: 527 nm
- Molar extinction coefficient [4, 8]: 56,210 M^−1 cm^−1
- Quantum yield ([4]; Table 4, excitation wavelength 470 nm): 46.8%
